Test results taken from US20090214627.

T1: Peptide 1: Lys-Lys-His-Ala-Asp-Asp-Gly-Ala-Met-Pro-Met-Ser-Pro-Gly-Val-Ala (mutant IRS-1 peptide)
T1 chain: KKHADDGAMPMSPGVA

T2: Peptide 2: Arg-Thr-Glu-Ser-Ile-Thr-Ala-Thr-Ser-Pro-Ala-Ser-Met-Val-Gly-Gly-Lys-Pro (second IRS-1 peptide)
T2 chain: RTESITATSPASMVGGKP


How the values were obtained:
[1] = test system: insulin receptor substrate-1 (IRS-1) peptide Y^608
[2] = biological target: T1, Peptide 1: …
[3] = biological target: T2, Peptide 2: …
[4] = biological target: insulin receptor substrate-1 (IRS-1) peptide Y^608; remark: listed apart in the source

Row | Molecule | IRS phosphorylation by BVR (32P kinase assay) [1] | peptide phosphorylation by BVR (32P retained on P81 filters) [2] | peptide phosphorylation by BVR (32P retained on P81 filters) [3] | IRS-1 phosphorylation by BVR (32P kinase assay) [4] | peptide phosphorylation by BVR (32P retained on P81 filters) [4] | phosphorylation of BVR by IRK in the presence of increasing molar ratio of IRS/BVR [4]
1 | GST-hBVR G17 mutant (GVGRA to GVARA), ATP binding domain mutant | G^17 mutation, for the most part, prevented IRS phosphorylation by BVR | – | – | – | – | –
2 | GST-hBVR fusion protein, wild type (human biliverdin reductase fused to glutathione-S-transferase) (protein) MNAEPERKFGVVVVGVGRAGSVRMRDLRNPHPSSAFLNLIGFVSRRELGSIDGVQQISLEDALSSQEVEVAYICSESSSHEDYIRQFLNAGKHVLVEYPMTLSLAAAQELWELAEQKGKVLHEEHVELLMEEFAFLKKEVVGKDLLKGSLLFTSDPLEEDRFGFPAFSGISRLTWLVSLFGELSLVSATLEERKEDQYMKMTVCLETEKKSPLSWIEEKGPGLKRNRYLSFHFKSGSLENVPNVGVNKNIFLKDQNIFVQKLLGQFSEKELAAEKKRILHCLGLAEEIQKYCCSRK | – | both the mutated and unmutated peptides were phosphorylated to about the same extent (1049±78 cpm and 1081±183 cpm respectively) | this peptide is also a suitable substrate for BVR (1198±230 cpm) | IRS-1 is a substrate for BVR | both the mutated and unmutated peptides were phosphorylated to about the same extent (1049±78 cpm and 1081±183 cpm respectively) | in the presence of increasing amounts of IRS, there was an increase in phosphorylation of BVR by IR up to equimolar ratio of IRS/BVR
